# Test results reported in patent US5457092A, “Methods of promoting bone growth in mammals comprising administration of modified parathyroid hormone” (Gesellschaft fur Biotechnologische Forschung mbH (GBF), priority 1987, dated 1995).
# B1: bPTH(1-84): full-length (complete) parathyroid hormone, bovine source; comparative example (protein, UniProt P01268 32-115, looked up)
# Parathyroid hormone: AVSEIQFMHNLGKHLSSMERVEWLRKKLQDVHNFVALGASIAYRDGSSQRPRKKEDNVLVESHQKSLGEADKADVDVLIKAKPQ
# modifications: Parathyroid hormone
# What was measured:
# [1] = tested on: osteoblast enriched rat embryo calvaria cell cultures; assay: Cyclic AMP production in rat embryo calvaria cell cultures; assay type: cell-based
# Description: (§1) FIG. 10 is a graphical representation showing the dose dependent stimulation by bPTH (1-84) of osteoblast enriched rat embryo calvaria cell cultures. Experimental details for the determination of cyclic AMP (.quadrature.) (15 min after stimulation) and incorporation of [^3 H]thymidine into DNA ( ) and CK ( ) specific activity (24 h after stimulation) are given below. The results are means ±S.E.M., N≥5. In several cases the S.E.M. was less than the size of the symbol. Control values were: cyclic AMP, 25±5 pmol/mg of protein; DNA, 240±30 c.p.m./μg of DNA; CK, 200±20 nmol/min per mg of protein. Statistical significance of differences between treated and corresponding control groups by Student's T test: *P<0.05; **P<0.01.
# (§2) Rat calvaria cultures were treated with fragments of PTH derived from the central portion of the molecule.
# [2] = tested on: osteoblast enriched rat embryo calvaria cell cultures; assay: CK specific activity in rat embryo calvaria cell cultures; assay type: cell-based; details: for increase of CK activity (in words): treated for 24 h
# Description: as §1, §2
# [3] = tested on: osteoblast enriched rat embryo calvaria cell cultures; assay: DNA synthesis ([3H]thymidine incorporation) in rat embryo calvaria cell cultures; assay type: cell-based
# Description: as §1
# [4] = tested on: ROS 17/2.8 osteoblast-like cells; assay: Cyclic AMP production in ROS 17/2.8 osteoblast-like cells; assay type: cell-based, rat; details: for Cyclic AMP, effect of fragment (experimental value/control value): control 29 ± 5.2 pmol/mg of protein
# Description: When cultures of the widely used model for osteoblasts, the osteoblast-likeclone of rat osteosarcoma, ROS 17/2.8 (Endocrinology (Baltimore), 107 (1980) 1494-1503=12; Majeska et al.), were incubated with full-length PTH and PTH fragments (Table 4), cyclic AMP production was stimulated only by bPTH(1-84) and hPTH(1-34), whereas hPTH(25-39), hPTH(27-48), hPTH(28-48) and hPTH(34-47) were ineffective.
# [5] = tested on: ROS 17/2.8 osteoblast-like cells; assay: CK specific activity in ROS 17/2.8 osteoblast-like cells; assay type: cell-based, rat; details: control 698 ± 70 nmol/min per mg of protein
# [6] = tested on: ROS 17/2.8 osteoblast-like cells; assay: DNA synthesis in ROS 17/2.8 osteoblast-like cells; assay type: cell-based, rat; details: control 392 ± 58 c.p.m./μg of DNA
# [7] = tested on: rat organs (epiphysis, diaphysis, kidney); assay: CK specific activity in rat organs after i.p. injection; assay type: in vivo; details: i.p., 4 h later
# Description: FIG. 13 is a graph showing the time-dependent stimulation by hPTH (28-48) of CK specific activity in rat organs. Female rats (20-25 days old) were injected i.p. with hPTH-(28-48) (1.25 μg/rat). Experimental details are as described for FIG. 10. (a) Diaphysis, (b) epiphysis, (c) kidney. *P<0.05, **P<0.01 versus controls.
# FIG. 14 is a graph showing the dose-dependent stimulation of CK specific activity by hPTH (1-34) in rat organs. Female rats (20-25 days old) were injected i.p. with hPTH-(1-34). At 4 h later, rats were killed and extracts were prepared and assayed as described below. Experimental details are as described for FIG. 10 (a) Diaphysis, (b) epiphysis, (c) kidney. *P<0.05, ** P<0.01 versus controls.
# FIG. 15 is a graph showing the dose-dependent stimulation of CK specific activity by hPTH (28-48) in rat organs. Female rats (20-25 days old) were injected i.p. with hPTH-(28-48). Experimental details are as described for FIG. 13 (a) Diaphysis, (b) epiphysis, (c) kidney. *P<0.05, **P<0.01 versus controls.
# FIG. 16 is a graph showing the […] stimulation by bPTH (1-84) of CK specific activity in rat organs. Female rats (20-25 days old) were injected i.p. with bPTH-(1-84) (3.5 μg/rat). At the times indicated, the rats were killed and the diaphyses (a) and epiphyses (b) of long bones as well as the kidneys (c) were collected and homogenized. Extracts were prepared and assayed as described below. Results are means ±S.E.M for π=5. Statistical significance of differences between treated and control groups by Student's T test: *P<0.05; **P<0.01. Note that the activity scales differ for different organs.
# Kidneys, tibia and femur were excised; the epiphyses or diaphyses of the long bones were collected and washed thoroughly with cold 0.9% NaCl. The bones were split open lengthwise and the marrow was scraped out. Organs were homogenized in ice-cold buffer containing 50 mM-Tris/HCl (pH 6.8), 5 mH-magnesium acetate. 2.5 mM-dithiothreitol, 0.4 mM-EDTA and 250 mM-sucrose using a Polytron homogenizer in 10 s bursts with intervening cooling periods. Supernatant extracts were obtained by centrifugation at 12000 g for 5 min at 4° C. CK activity was measured at 30° C. in a Gilford 250 automatic recording spectrophotometer at 340 nm using a coupled assay for ATP, in 0.5 ml of incubation mixture containing 50 mM-imidazole acetate buffer (pH 6.7), 25 mM-phosphocreatine, 20 mM-N-acetylcysteine, 20 mM-D-glucose, 10 mM-magnesium acetate, 5 mM-EDTA, 2 mM-ADP, 2 mM-NAD+, 2 mM-dithiothreitol, 50 μM-diadenosine pentaphosphate (adenylate kinase inhibitor), 5 μg of bovine serum albumin. 1.2 units of glucose-6-phosphate dehydrogenase and 0.8 units of hexokinase. Protein was determined by the Coomassie Brilliant Blue dye-binding method, with bovine serum albumin as the standard.
# [8] = tested on: rat organs (epiphysis, diaphysis, kidney); assay: [3H]thymidine incorporation into DNA in rat organs after i.p. injection; assay type: in vivo
# Description: FIG. 12 is a graph showing the time course of stimulation by hPTH (1-34) of DNA synthesis in rat organs. Female rats (20-25 days old) were injected i.p. with hPTH-(1-34) (2 μg/rat). At 2 h before the times indicated, the rats were killed and organs were removed and incubated in 2 ml of Dulbecco's modified Eagle's medium containing 5 μl of [^3 H]thymidine. (Amersham: 5 Ci/mmol) for 2 h, then washed with medium and homogenized in deionized distilled water. The total uptake of [^3 H]thymidine and acid-insoluble radioactivity was measured, as well as DNA content, as described below. , Diaphysis; O, epiphysis; Δ; kidney. P<0.01 versus controls.
# The pieces were then incubated for 2 h more (the time indicated in FIG. 12) with [^3 H]thymidine (5 μci/ml; 5 Ci/mmol) at 37° C. in Dulbecco's modified Eagle's medium under an atmosphere Of […] /95% air. Total [^3 H]thymidine uptake and incorporation into trichloroacetic acid-insoluble material was measured as described in Biochem. J., 214 (1983) 293-298 (16; Somjen et al.). At no time including the 22 24 h pulse, was there any significant change in the total uptake of [^3 H]thymidine which reflects changes in the thymidine pool which, in turn, could account for changes in incorporation. DNA was determined by the Burton method; cf. Biochem. J., 62 (1956) 315-323 (17; Burton).
# To corroborate that under the circumstances of these experiments the increase in CK specific activity in bone is indeed a valid marker of cell proliferation, changes in DNA synthesis were measured by [^3 H]thymidine incorporation; cf. Biochem. J., 272 (1990) 781-785 (18; Somjen et al.). The earliest time at which PTH increased [^3 H]thymidine incorporation was determined by in-jecting rats with an optimal dose of 2 μp of PTH(1-34)/rat, equivalent to 13 nM (FIG. 14) and measuring 2 h pulses of [^3 H)thymidine incorporation into DNA (FIG. 12).
# [9] = tested on: rat organs (epiphysis, diaphysis, kidney); assay: as above; assay type: in vivo; remark: listed apart in the source
# [10] = tested on: rat epiphysial cartilage cell cultures; assay: CK specific activity in rat epiphysial cartilage cell cultures; assay type: cell-based
# Description: To compare the stimulations seen in osteoblast-like cells (FIGS. 10 and 11) with PTH effects in a cartilage system, cultures of rat epiphysial cartilage cells were incubated with full-length PTH and selected PTH fragments (Table 3). CK activity was stimulated by bPTH(1-84) and hPTH(28-48) but not by hPTH(25-39) or hPTH(34-47). […] The comparison between the complete molecule and the mid-regional fragment hPTH (28-48) is similar to but not identical with the results obtained for calvaria cell cultures (FIGS. 10 and 11) and in the chick sternum chondrocyte system; cf. Biochem. J., 252 (1988) 263-268 (11; Farndale et al.),
# [11] = tested on: rat epiphysial cartilage cell cultures; assay: DNA synthesis in rat epiphysial cartilage cell cultures; assay type: cell-based; details: 10 nM; control 350 ± 25
molecule,measurement,setting,value
CC[C@H](C)[C@H](NC(=O)[C@H](CCC(=O)O)NC(=O)[C@H](CO)NC(=O)[C@@H](NC(=O)[C@@H](N)CO)C(C)C)C(=O)N[C@@H](CCC(N)=O)C(=O)N[C@@H](CC(C)C)C(=O)N[C@@H](CCSC)C(=O)N[C@@H](Cc1c[nH]cn1)C(=O)N[C@@H](CC(N)=O)C(=O)N[C@@H](CC(C)C)C(=O)NCC(=O)N[C@@H](CCCCN)C(=O)N[C@@H](Cc1c[nH]cn1)C(=O)N[C@@H](CC(C)C)C(=O)N[C@@H](CC(N)=O)C(=O)N[C@@H](CO)C(=O)N[C@@H](CCSC)C(=O)N[C@@H](CCC(=O)O)C(=O)N[C@@H](CCCNC(=N)N)C(=O)N[C@H](C(=O)N[C@@H](CCC(=O)O)C(=O)N[C@@H](Cc1c[nH]c2ccccc12)C(=O)N[C@@H](CC(C)C)C(=O)N[C@@H](CCCNC(=N)N)C(=O)N[C@@H](CCCCN)C(=O)N[C@@H](CCCCN)C(=O)N[C@@H](CC(C)C)C(=O)N[C@@H](CCC(N)=O)C(=O)N[C@@H](CC(=O)O)C(=O)N[C@H](C(=O)N[C@@H](Cc1c[nH]cn1)C(=O)N[C@@H](CC(N)=O)C(=O)N[C@@H](Cc1ccccc1)C(=O)O)C(C)C)C(C)C [hPTH(1-34)],stimulation of cyclic AMP production (in words),[1]; treated for 15 min,able to stimulate cyclic AMP formation
same,increase of CK activity (in words),[2],maximally active
same,stimulation of DNA synthesis (in words),[3],maximal
same,stimulation of cyclic AMP production (in words),[4],stimulated
same,"Cyclic AMP, effect of fragment (experimental value/control value)",[4]; 40 nM,4.67 ± 0.09
same,"CK specific activity, effect of fragment (experimental value/control value)",[5]; 40 nM,1.83 ± 0.09
same,"[^3 H]Thymidine incorporation, effect of fragment (experimental value/control value)",[6]; 40 nM,2.06 ± 0.09
same,dose of maximal effect on CK specific activity,[7],2 μg/rat
same,dose giving a significant increase in CK specific activity in all organs,"[7]; diaphysis, epiphysis, kidney",0.4 μg/rat
same,DNA synthesis in the kidney over time (in words),"[8]; 2 μg/rat, equivalent to 13 nM, 2 h pulses",no increase in DNA synthesis at any time
same,DNA synthesis in the diaphysis and the epiphysis at 4 or 16 h (in words),"[8]; 2 μg/rat, 4 or 16 h",no change
same,DNA synthesis in the diaphysis and the epiphysis at 24 h (in words),"[9]; 2 μg/rat, 24 h",significant increase
B1,"Cyclic AMP concentration, effect of fragment (experimental value/control value)","[1]; 100 nM, 15 min, control 29 ± 2.9 pmol/mg of protein",3.74 ± 0.30
same,"CK specific activity, effect of fragment (experimental value/control value)","[2]; 100 nM, 24 h, control 457 ± 46 nmol/min per mg of protein",2.27 ± 0.09
same,increase of CK activity (in words),[2],maximally active
same,stimulation of DNA synthesis (in words),[3],maximal
same,"[3H)Thymidine incorporation, effect of fragment (experimental value/control value)","[3]; 100 nM, 24 h, control 624 ± 73 c.p.m./μg of DNA",2.61 ± 0.11
same,stimulation of CK activity (in words),[10],stimulated
same,CK specific activity,"[10]; 10 nM, control 225 ± 32",389 ± 39 nmol/min per mg of protein
same,[^3 H]Thymidine incorporation into DNA,[11],556 ± 50 c.p.m./plate
same,stimulation of cyclic AMP production (in words),[4],stimulated
same,"Cyclic AMP, effect of fragment (experimental value/control value)",[4]; 10 nM,4.60 ± 0.10
same,"CK specific activity, effect of fragment (experimental value/control value)",[5]; 10 nM,1.92 ± 0.11
same,"[^3 H]Thymidine incorporation, effect of fragment (experimental value/control value)",[6]; 10 nM,1.71 ± 0.18
same,stimulation of DNA synthesis in the kidney (in words),[8]; 22-24 h after injection,no significant stimulation
same,"[^3 H]thymidine incorporation into DNA, Kidney","[9]; rat, 22-24 h after injection of 3.5 μg, control 9.0 ± 2.1",11.8 ± 2.4 c.p.m./pg of DNA
same,"[^3 H]thymidine incorporation into DNA, Diaphysis","[9]; rat, 22-24 h after injection of 3.5 μg, control 24.1 ± 3.8",43.4 ± 4.7 c.p.m./pg of DNA
same,"[^3 H]thymidine incorporation into DNA, Epiphysis","[9]; rat, 22-24 h after injection of 3.5 μg, control 25.8 ± 5.2",40.7 ± 3.3 c.p.m./pg of DNA
